Measurements reported in article PMC11551761, “Probing the mechanism of nick searching by LIG1 at the single-molecule level”.
Positions count from the first letter of the chain named.

Tests used:
LIG1 C-terminal = LIG1 C-terminal (human, UniProt P18858 261-919, del1-260); assay: BLI; no Mg2+ listed in buffer; 1 mM HEPES pH 7.4, 20 mM NaCl, 0.02% BSA, 0.002% Tween 20 (BLI, C-Trap, TIRF; TIRF plus oxygen scavenger and 10 mM Trolox); BLI sensors hydrated at 20 C, assay; details: protein: recombinant; tags: 6xHis (pET-24b); AF488 or Cy5 labelled for single-molecule assays; Methods says 3'); nicked duplex
LIG1 full-length [1] = target: T1, LIG1 full-length (human, UniProt P18858 1-919); assay: as above; details: protein: recombinant; tags: 6xHis (pET-24b); AF488 or Cy5 labelled for single-molecule assays; Methods says 3'); nicked duplex
LIG1 full-length [2] = target: T1, LIG1 full-length; assay: single-molecule TIRF; no Mg2+; bound lifetimes 0.9 s (70%), 8 s (30%); unbound 42 s; 1 mM HEPES pH 7.4, 20 mM NaCl, 0.02% BSA, 0.002% Tween 20 (BLI, C-Trap, TIRF; TIRF plus oxygen scavenger and 10 mM Trolox); BLI sensors hydrated at 20 C, assay; details: protein: recombinant; tags: 6xHis (pET-24b); AF488 or Cy5 labelled for single-molecule assays; label: 5'-biotin on Up; 3'-AF488 on Down; nicked duplex, blunt; nick between 18-nt Up and 16-nt Down on 34-nt template

T1 sequence (P18858 whole entry): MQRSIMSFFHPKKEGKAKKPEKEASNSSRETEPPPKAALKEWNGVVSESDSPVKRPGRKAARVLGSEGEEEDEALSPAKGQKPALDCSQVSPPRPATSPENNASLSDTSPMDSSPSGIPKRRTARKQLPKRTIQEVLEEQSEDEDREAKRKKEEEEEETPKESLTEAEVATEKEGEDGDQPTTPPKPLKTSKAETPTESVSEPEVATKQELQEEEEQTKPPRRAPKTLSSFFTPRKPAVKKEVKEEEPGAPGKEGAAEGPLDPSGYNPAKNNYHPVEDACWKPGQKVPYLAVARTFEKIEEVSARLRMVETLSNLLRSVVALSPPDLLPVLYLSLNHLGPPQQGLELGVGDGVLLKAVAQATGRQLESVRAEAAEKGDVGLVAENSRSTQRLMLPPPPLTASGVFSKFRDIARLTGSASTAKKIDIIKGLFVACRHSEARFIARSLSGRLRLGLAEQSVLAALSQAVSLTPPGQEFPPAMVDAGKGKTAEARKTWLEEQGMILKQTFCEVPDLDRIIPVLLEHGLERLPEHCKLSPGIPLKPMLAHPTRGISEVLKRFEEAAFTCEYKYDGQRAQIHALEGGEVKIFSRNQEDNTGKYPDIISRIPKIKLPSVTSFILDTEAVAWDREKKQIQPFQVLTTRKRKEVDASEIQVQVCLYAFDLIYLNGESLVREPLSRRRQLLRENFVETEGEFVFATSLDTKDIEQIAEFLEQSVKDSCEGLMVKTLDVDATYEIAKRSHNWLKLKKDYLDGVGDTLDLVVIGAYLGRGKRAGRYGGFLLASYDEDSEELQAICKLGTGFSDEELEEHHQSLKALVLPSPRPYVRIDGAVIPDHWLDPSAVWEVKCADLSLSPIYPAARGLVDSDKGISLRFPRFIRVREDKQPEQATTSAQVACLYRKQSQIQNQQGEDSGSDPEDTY
Chain of LIG1 C-terminal (P18858 261-919, stated change not applied): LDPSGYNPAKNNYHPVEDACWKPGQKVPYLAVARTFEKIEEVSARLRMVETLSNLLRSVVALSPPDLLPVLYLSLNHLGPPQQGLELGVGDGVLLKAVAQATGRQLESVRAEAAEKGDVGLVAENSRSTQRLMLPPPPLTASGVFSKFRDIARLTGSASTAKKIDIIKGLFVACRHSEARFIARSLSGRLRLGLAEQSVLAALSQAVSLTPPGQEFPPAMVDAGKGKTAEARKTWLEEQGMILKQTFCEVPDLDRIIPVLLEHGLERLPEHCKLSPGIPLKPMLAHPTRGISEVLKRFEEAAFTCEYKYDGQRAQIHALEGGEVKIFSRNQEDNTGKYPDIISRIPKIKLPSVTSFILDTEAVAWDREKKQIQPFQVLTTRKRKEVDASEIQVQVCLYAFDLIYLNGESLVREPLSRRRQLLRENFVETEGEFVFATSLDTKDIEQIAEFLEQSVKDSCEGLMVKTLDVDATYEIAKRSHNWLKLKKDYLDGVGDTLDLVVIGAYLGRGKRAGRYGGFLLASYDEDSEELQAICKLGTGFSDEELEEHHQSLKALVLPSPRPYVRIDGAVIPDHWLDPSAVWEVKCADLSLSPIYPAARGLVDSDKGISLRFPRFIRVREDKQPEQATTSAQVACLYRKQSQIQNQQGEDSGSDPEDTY

B1: nick DNA 3'-dG:C/5'-Bio (BLI) (dsDNA)
DNA 1: CATGGGCGGCATGAACCGGAGGCCCATCCTCACC
DNA 2: GGTGAGGATGGGCCTCCGGTTCATGCCGCCCATG
modifications: single nick
How did the Kd (LIG1 C-terminal) turn out when B1 was run?
Its Kd is 196 nM.

What about the Kd (LIG1 full-length [1]) of the same binder?
Its Kd is 95 nM.

B2: 34-mer single-nick DNA (Up-OH + Down / Template T) (dsDNA)
DNA 1: CATGGGCGGCATGAACCA
DNA 2: GAGGCCCATCCTCACC
DNA 3: B1 DNA 2 with C17T
modifications: 5'-phosphate on Down; 3'-OH at nick
Does B2 bind (LIG1 full-length [2])?
Result: binds
